Laboratory results published in publication PMC10819763, “Reconstitution of the phosphodiesterase 6 maturation process important for photoreceptor cell function” (The Journal of Biological Chemistry, 2023).
“And” between values parts separate entries of the source, which are not always exact repeats. Identical values can stand only once.

B1: His6-tagged bovine Pγr (rod PDE6 inhibitory γ-subunit), bacterially expressed (natural protein, UniProt P04972 1-87, looked up)
chain: MNLEPPKAEIRSATRVMGGPVTPRKGPPKFKQRQTRQFKSKPPKKGVQGFGDDIPGMEGLGTDITVICPWEAFNHLELHELAQYGII
notes: also called rod Pγ; purified recombinant Pγr
B2: human cone PDE6C (aa 1-830), expressed as an EGFP fusion protein and released with HRV-3C protease (enzyme, UniProt P51160 1-830, looked up)
chain: MGEINQVAVEKYLEENPQFAKEYFDRKLRVEVLGEIFKNSQVPVQSSMSFSELTQVEESALCLELLWTVQEEGGTPEQGVHRALQRLAHLLQADRCSMFLCRSRNGIPEVASRLLDVTPTSKFEDNLVGPDKEVVFPLDIGIVGWAAHTKKTHNVPDVKKNSHFSDFMDKQTGYVTKNLLATPIVVGKEVLAVIMAVNKVNASEFSKQDEEVFSKYLNFVSIILRLHHTSYMYNIESRRSQILMWSANKVFEELTDVERQFHKALYTVRSYLNCERYSIGLLDMTKEKEFYDEWPIKLGEVEPYKGPKTPDGREVNFYKIIDYILHGKEEIKVIPTPPADHWTLISGLPTYVAENGFICNMMNAPADEYFTFQKGPVDETGWVIKNVLSLPIVNKKEDIVGVATFYNRKDGKPFDEHDEYITETLTQFLGWSLLNTDTYDKMNKLENRKDIAQEMLMNQTKATPEEIKSILKFQEKLNVDVIDDCEEKQLVAILKEDLPDPRSAELYEFRFSDFPLTEHGLIKCGIRLFFEINVVEKFKVPVEVLTRWMYTVRKGYRAVTYHNWRHGFNVGQTMFTLLMTGRLKKYYTDLEAFAMLAAAFCHDIDHRGTNNLYQMKSTSPLARLHGSSILERHHLEYSKTLLQDESLNIFQNLNKRQFETVIHLFEVAIIATDLALYFKKRTMFQKIVDACEQMQTEEEAIKYVTVDPTKKEIIMAMMMTACDLSAITKPWEVQSQVALMVANEFWEQGDLERTVLQQQPIPMMDRNKRDELPKLQVGFIDFVCTFVYKEFSRFHKEITPMLSGLQNNRVEWKSLADEYDAKMKVIEEEA
notes: human PDE6C, cone cGMP phosphodiesterase catalytic subunit, truncation of the C-terminal 28 residues (aa 1-830); GFP and PDE6C cDNAs were spliced with primers containing the HRV-3C site and a FLAG tag, cloned into pFastBac HT A by Gibson assembly; also called EGFP-PDE6C; source: Sf9 cells (baculovirus), alone or co-expressed with AIPL1 or with AIPL1 and Pγ; purified (EGFP-nanobody resin, HRV-3C …)

Assays:
[1] = biological target: T1, trypsin-activated PDE6AB from mouse retina extract (mouse (endogenous in retina), UniProt P27664 1-859; P23440 1-856); experiment: inhibition of enzyme activity (cGMP hydrolysis); trypsin-treated mouse retina extract inhibited by purified recombinant Pγr; 20 mM Tris-HCl pH 7.5, 120 mM NaCl, 2 mM MgSO4, 1 mM BME, 10 μM [3H]cGMP, 25 °C; settings: one partner purified
T1 construct: mouse rod PDE6 catalytic subunit PDE6A, after trypsin treatment of the retina lysate; mouse rod PDE6 catalytic subunit PDE6B, after trypsin treatment of the retina lysate; Trypsin treatment degrades the endogenous Pγ; The retina extract also holds a few percent of cone PDE6C activity; also called mouse rod PDE6; source: endogenous, C57BL/J mouse retina lysate, trypsin-treated; copies: 1 + 1

[2] = biological target: B2; experiment: inhibition of enzyme activity (cGMP hydrolysis); purified PDE6C (co-expressed with AIPL1) inhibited by purified recombinant Pγr; 20 mM Tris-HCl pH 7.5, 120 mM NaCl, 2 mM MgSO4, 1 mM BME, 10 μM [3H]cGMP, 25 °C; settings: both partners purified
[3] = biological target: the molecule itself; experiment: SEC; PDE6C co-expressed with AIPL1, eluted from EGFP-nanobody resin with HRV-3C, preincubated with 3 mM ATP for 10 min at 25 °C; Superose 6 10/300 GL in 10 mM HEPES pH 7.5, 150 mM NaCl, 1 mM TCEP, 2 mM MgCl2

T1 sequence (P27664 whole entry, chain 1 of 2): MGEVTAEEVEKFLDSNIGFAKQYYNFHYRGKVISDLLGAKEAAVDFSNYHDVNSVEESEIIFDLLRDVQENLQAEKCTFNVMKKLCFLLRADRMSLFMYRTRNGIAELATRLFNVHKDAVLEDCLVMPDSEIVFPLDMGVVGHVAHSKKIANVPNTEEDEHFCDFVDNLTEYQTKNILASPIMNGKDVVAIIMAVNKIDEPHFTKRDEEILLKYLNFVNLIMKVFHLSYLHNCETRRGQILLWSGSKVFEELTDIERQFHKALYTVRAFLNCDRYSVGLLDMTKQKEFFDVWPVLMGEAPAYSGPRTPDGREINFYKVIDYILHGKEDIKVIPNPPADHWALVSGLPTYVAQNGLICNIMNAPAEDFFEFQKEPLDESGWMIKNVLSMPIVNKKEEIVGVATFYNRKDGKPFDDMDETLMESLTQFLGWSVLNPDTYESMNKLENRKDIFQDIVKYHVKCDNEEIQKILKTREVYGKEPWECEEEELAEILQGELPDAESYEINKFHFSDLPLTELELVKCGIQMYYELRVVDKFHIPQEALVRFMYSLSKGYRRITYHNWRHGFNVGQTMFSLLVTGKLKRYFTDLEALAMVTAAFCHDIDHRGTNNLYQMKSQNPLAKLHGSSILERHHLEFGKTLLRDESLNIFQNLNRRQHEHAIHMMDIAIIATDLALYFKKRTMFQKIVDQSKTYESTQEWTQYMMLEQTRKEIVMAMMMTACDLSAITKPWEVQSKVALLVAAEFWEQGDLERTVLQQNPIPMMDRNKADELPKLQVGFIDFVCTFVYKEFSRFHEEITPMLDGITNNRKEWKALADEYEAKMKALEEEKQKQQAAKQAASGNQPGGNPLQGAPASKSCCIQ
T1 sequence (P23440 whole entry, chain 2 of 2): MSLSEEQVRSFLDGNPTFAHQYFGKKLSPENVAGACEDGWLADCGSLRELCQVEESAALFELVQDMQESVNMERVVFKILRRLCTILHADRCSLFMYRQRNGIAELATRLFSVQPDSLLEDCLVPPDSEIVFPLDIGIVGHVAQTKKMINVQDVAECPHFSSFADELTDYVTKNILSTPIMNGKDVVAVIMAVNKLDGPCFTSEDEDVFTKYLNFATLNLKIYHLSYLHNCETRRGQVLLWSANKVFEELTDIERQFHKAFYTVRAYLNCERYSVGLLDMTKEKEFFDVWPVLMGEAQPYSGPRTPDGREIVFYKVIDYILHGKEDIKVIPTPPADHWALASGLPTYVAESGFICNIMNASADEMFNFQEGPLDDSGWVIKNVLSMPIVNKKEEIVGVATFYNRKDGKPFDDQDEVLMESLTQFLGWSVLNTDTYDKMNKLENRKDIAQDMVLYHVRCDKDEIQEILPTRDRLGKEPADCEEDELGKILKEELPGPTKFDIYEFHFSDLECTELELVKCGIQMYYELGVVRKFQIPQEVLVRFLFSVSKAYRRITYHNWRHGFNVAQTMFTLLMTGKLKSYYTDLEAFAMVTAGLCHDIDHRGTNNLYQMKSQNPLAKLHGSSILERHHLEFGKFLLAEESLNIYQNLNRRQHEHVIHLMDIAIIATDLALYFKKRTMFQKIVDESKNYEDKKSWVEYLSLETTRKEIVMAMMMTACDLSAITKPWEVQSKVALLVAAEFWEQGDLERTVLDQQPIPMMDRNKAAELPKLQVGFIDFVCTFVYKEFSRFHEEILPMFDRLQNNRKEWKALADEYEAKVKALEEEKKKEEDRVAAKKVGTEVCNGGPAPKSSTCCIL

Binder	Ki [1] [pM]	Ki [2]	stoichiometry N [3]
B1	89	95 pM and 88 pM	–
B2	–	–	2
